Source: article PMC8240853 (The Journal of Cell Biology, 2021)
Values joined by “and” are separate entries in the source; they are usually repeats but may differ in a detail not shown here. Identical values can stand only once. One block for each molecule: values may come before it.

Key:
[1] = target: WDR62 WD40 domain, 1-790 (UniProt O43379); assay: streptavidin pull-down, GFP Western blot; conditions: reference: wild-type C3 fragment; sites T1053
[2] = target: microtubules of porcine brain tubulin (porcine) (UniProt P02550); assay: binding to microtubules in vitro
[3] = target: WDR62-N2-GFP (human)
[4] = target: T1, Strep-TagBFP-TPX2 (human, UniProt Q9ULW0-1 1-747); assay: recruitment to microtubules in vitro
T1 sequence: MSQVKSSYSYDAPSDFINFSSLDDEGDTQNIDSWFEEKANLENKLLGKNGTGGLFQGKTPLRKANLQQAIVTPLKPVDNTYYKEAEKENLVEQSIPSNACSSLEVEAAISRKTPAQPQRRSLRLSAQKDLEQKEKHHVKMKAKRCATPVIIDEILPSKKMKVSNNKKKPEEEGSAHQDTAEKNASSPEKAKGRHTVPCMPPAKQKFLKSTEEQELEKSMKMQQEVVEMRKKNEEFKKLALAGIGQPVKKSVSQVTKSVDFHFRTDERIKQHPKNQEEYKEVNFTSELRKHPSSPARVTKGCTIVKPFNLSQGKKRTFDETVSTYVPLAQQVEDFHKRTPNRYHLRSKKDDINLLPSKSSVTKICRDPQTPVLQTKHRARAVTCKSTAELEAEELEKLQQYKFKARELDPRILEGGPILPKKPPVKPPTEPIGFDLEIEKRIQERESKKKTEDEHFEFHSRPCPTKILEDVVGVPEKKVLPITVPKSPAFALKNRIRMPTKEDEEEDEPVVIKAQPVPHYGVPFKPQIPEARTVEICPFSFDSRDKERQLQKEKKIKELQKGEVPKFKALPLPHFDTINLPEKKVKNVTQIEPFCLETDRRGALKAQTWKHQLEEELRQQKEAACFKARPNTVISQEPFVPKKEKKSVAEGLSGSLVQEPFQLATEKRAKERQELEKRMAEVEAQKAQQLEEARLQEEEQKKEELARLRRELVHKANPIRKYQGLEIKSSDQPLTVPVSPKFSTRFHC

[5] = target: WDR62 FL WT-GFP-Strep (human, UniProt O43379-4 1-1523); assay: recruitment to microtubules in vitro
[6] = target: Strep-p80 WD (UniProt Q8BG40 1-315); assay: pull-down
Strep-p80 WD, sequence (Q8BG40 1-315): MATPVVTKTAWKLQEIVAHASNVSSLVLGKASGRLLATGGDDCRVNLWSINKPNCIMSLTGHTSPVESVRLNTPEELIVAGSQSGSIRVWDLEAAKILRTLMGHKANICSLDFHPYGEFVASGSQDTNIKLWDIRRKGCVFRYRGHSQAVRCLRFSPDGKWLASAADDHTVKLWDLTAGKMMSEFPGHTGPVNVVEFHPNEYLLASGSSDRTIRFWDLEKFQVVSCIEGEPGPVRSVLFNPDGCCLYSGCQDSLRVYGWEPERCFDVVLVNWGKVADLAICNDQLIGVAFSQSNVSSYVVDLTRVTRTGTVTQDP

Molecule: WDR62 WD-GFP-Strep (from UniProt O43379-4 1-790) (domain or fragment)
fold affinity for GMPCPP-stabilized MTs against the FL protein [2]: 4 fold and 5 fold

B1: Strep-GFP–Aurora A (natural protein)
chain: MDRSKENCISGPVKATAPVGGPKRVLVTQQFPCQNPLPVNSGQAQRVLCPSNSSQRIPLQAQKLVSSHKPVQNQKQKQLQATSVPHPVSRPLNNTQKSKQPLPSAPENNPEEELASKQKNEESKKRQWALEDFEIGRPLGKGKFGNVYLAREKQSKFILALKVLFKAQLEKAGVEHQLRREVEIQSHLRHPNILRLYGYFHDATRVYLILEYAPLGTVYRELQKLSKFDEQRTATYITELANALSYCHSKRVIHRDIKPENLLLGSAGELKIADFGWSVHAPSSRRTTLCGTLDYLPPEMIEGRMHDEKVDLWSLGVLCYEFLVGKPPFEANTYQETYKRISRVEFTFPDFVTEGARDLISRLLKHNPSQRPMLREVLEHPWITANSSKPSNCQNKESASKQS
binding result [4]: binds

B2: TPX2/TagBFP–Aurora A complex (complex)
chain 1: MSQVKSSYSYDAPSDFINFSSLDDEGDTQNIDSWFEEKANLENKLLGKNGTGGLFQGKTPLRKANLQQAIVTPLKPVDNTYYKEAEKENLVEQSIPSNACSSLEVEAAISRKTPAQPQRRSLRLSAQKDLEQKEKHHVKMKAKRCATPVIIDEILPSKKMKVSNNKKKPEEEGSAHQDTAEKNASSPEKAKGRHTVPCMPPAKQKFLKSTEEQELEKSMKMQQEVVEMRKKNEEFKKLALAGIGQPVKKSVSQVTKSVDFHFRTDERIKQHPKNQEEYKEVNFTSELRKHPSSPARVTKGCTIVKPFNLSQGKKRTFDETVSTYVPLAQQVEDFHKRTPNRYHLRSKKDDINLLPSKSSVTKICRDPQTPVLQTKHRARAVTCKSTAELEAEELEKLQQYKFKARELDPRILEGGPILPKKPPVKPPTEPIGFDLEIEKRIQERESKKKTEDEHFEFHSRPCPTKILEDVVGVPEKKVLPITVPKSPAFALKNRIRMPTKEDEEEDEPVVIKAQPVPHYGVPFKPQIPEARTVEICPFSFDSRDKERQLQKEKKIKELQKGEVPKFKALPLPHFDTINLPEKKVKNVTQIEPFCLETDRRGALKAQTWKHQLEEELRQQKEAACFKARPNTVISQEPFVPKKEKKSVAEGLSGSLVQEPFQLATEKRAKERQELEKRMAEVEAQKAQQLEEARLQEEEQKKEELARLRRELVHKANPIRKYQGLEIKSSDQPLTVPVSPKFSTRFHC
chain 2: MDRSKENCISGPVKATAPVGGPKRVLVTQQFPCQNPLPVNSGQAQRVLCPSNSSQRIPLQAQKLVSSHKPVQNQKQKQLQATSVPHPVSRPLNNTQKSKQPLPSAPENNPEEELASKQKNEESKKRQWALEDFEIGRPLGKGKFGNVYLAREKQSKFILALKVLFKAQLEKAGVEHQLRREVEIQSHLRHPNILRLYGYFHDATRVYLILEYAPLGTVYRELQKLSKFDEQRTATYITELANALSYCHSKRVIHRDIKPENLLLGSAGELKIADFGWSVHAPSSRRTTLCGTLDYLPPEMIEGRMHDEKVDLWSLGVLCYEFLVGKPPFEANTYQETYKRISRVEFTFPDFVTEGARDLISRLLKHNPSQRPMLREVLEHPWITANSSKPSNCQNKESASKQS
binding result [5]: binds

The remaining lines, values ahead:

binding against the reference [1]: lost
Molecule: WDR62 C3, 1001-1523 (from UniProt O43379) C3 T1053A

breakage frequency of WDR62 N2-decorated curved MTs in live MRC5 cells [3]: 95%
Molecule: p60/TagBFP-p80 (from UniProt O43379-4;Q8BG40) (complex)

breakage frequency of WDR62 N2-decorated curved MTs in live MRC5 cells [3]: 95%
Molecule: p60/TagBFP-p80 R615A (from UniProt O43379-4;Q8BG40) (complex)

binding result [6]: binds
Molecule: LAFHAKRSYQPHGRWAERAGQEPLKTILDAQDLDCYFTPMKPES (domain or fragment) [trxA-6xHis-WDR62 M1]
